Assay results: US20230416345A1, “NEW TYPE II COLLAGEN BINDING PROTEINS” (Navigo Proteins GmbH, priority 2020, published 2023)

Assays:
[1] = Soluble expression in Escherichia coli BL21(DE3); type: physicochemical; settings: expression in E. coli BL21(DE3)
Method: Variants with affinity tag were expressed in Escherichia coli BL21(DE3) using a low copy plasmid system under regulation of a T7 promoter. Proteins were produced in soluble form after induction by lactose included in the medium (autoinduction medium). BL21 (DE3) competent cells were transformed with the expression plasmid, spread onto selective agar plates (kanamycin) and incubated overnight at 37° C. Precultures were inoculated from single colony in 3 ml 2×YT medium supplemented with 50 μg/ml kanamycin and cultured for 6 hours at 37° C. at 200 rpm in a conventional orbital shaker in culture tubes. […] Cultures were transferred to an orbital shaker and incubated at 30° C. and 200 rpm. […] Before the harvest, the OD600 was measured, samples adjusted to 0.6/OD600 were withdrawn, pelleted and frozen at −20° C. […]
Proteins with affinity tag were purified by affinity chromatography and size exclusion. […] Homogenous species of all purified ligands were obtained; no aggregation was detected. Following SOS-PAGE analysis positive fractions were pooled and their protein concentrations were measured. […] Protein concentrations were determined by absorbance measurement at 280 nm using the molar absorbent coefficient. […] Binding of Collagen II was evaluated by SPR measurements using a Biacore 3000 system. […]

[2] = target: T1, human collagen type I (h Col I) (Homo sapiens, UniProt P02452+P08123); assay: ELISA specificity vs human collagen type I; type: binding
T1 construct: purchased Sigma C5483-1MG
Method: (§1) High binding plates (Greiner, 781061) were immobilized with 2.5 μg/ml recombinant human collagen type II (h Col II, Chondrex, CHX-20051), rabbit collagen type II (rbCol II, prepared from rabbit eyes), porcine collagen type II (p Col II, prepared from porcine eyes), human collagen type I, (h Col I, Sigma, C5483-1MG), human collagen type V (h Col V, Abcam, ab7537), human collagen type III (h Col Ill, Abcam, ab7535) and 67B89 (domain of fibronectin, produced in E. coli) respectively over night at 4° C. ELISA-plates were washed 3 times with PBST (PBS+ 0.1% Tween) and blocked with 3% BSA/0.5% Tween/PBS 2 h at RT. After washing with PBST, dilution series of 1.1 μM to 7×10^−4 nM of dimers (CID 211999, CID 212000), dilution series of 100 nM to 7×10^−6 nM of tetramers (CID 212001 and CID 212704) and dilution series of 10 μM to 2 nM of dimer (CID 212705) were incubated on ELISA-plates 1 h at rt. Plates were washed with PBST and incubated with biotinylated anti-StrepTag-ab (Antikörper-online, ABIN1573895) with a dilution of 1:10.000 for 1 h at rt. The binding was visualized with a-rabbit-IgG-HRP (Sigma, A9169) with a dilution of 1:10.000 and as substrate TMB Plus von KEM EN TEC Diagnostic, Kat-Nr. 4395.

[3] = target: T2, recombinant human collagen type II (h Col II) (Homo sapiens, UniProt P02458); assay: KD-determination by ELISA vs human collagen type II; type: binding
T2 construct: purchased Chondrex CHX-20051
Method: as §1

Type III collagen = target: T3, Type III collagen (Homo sapiens, UniProt P02461); assay: SPR specificity vs Type III collagen; type: binding
T3 sequence (P02461 154-1221 limits assumed): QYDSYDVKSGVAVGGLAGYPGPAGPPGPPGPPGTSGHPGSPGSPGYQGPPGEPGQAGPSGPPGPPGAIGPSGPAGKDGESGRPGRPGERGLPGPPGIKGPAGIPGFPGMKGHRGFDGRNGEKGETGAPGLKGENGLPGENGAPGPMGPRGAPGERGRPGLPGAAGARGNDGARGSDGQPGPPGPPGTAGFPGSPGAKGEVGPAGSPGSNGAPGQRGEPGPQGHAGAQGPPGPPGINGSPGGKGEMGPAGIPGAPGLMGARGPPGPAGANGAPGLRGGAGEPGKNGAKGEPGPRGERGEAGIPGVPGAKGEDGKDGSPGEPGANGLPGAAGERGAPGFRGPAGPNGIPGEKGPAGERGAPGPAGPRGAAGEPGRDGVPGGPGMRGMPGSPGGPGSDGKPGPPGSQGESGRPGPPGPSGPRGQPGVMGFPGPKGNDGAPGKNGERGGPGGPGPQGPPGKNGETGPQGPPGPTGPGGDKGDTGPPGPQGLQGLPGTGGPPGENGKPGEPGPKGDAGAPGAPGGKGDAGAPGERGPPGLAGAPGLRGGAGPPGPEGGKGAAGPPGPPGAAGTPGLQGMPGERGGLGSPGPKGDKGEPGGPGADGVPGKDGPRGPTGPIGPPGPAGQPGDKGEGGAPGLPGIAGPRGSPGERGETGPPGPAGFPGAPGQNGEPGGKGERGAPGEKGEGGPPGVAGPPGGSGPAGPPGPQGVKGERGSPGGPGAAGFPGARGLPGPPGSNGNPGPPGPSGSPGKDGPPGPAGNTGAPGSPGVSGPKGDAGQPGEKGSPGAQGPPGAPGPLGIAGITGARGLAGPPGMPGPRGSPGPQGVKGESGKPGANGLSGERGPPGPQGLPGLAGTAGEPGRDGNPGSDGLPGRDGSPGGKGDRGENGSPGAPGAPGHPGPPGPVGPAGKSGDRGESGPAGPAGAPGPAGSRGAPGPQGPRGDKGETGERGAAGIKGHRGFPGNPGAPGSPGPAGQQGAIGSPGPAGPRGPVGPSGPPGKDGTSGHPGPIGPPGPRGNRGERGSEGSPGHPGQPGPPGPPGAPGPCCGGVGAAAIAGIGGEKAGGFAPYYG
Method: (§2) The purified proteins were immobilized on a CM-5 sensor chip (GE Healthcare) using NHS/EDC after PDEA activation resulting in 110-140 RU with a Biacore 3000 system (GE Healthcare). The chip was equilibrated with SPR running buffer (PBS 0.05% Tween pH 7.3). Upon binding, target analyte was accumulated on the surface increasing the refractive index. This change in the refractive index was measured in real time and plotted as response or resonance units versus time. The analytes were applied to the chip in serial dilutions with a flow rate of 30 μl/min. The association was performed for 120 seconds and the dissociation for 120 seconds. After each run, the chip surface was regenerated with 30 μl regeneration buffer (10 mM glycine pH 2.0) and equilibrated with running buffer.
(§3) Binding studies were carried out by the use of the BIAcore 3000 (GE Healthcare); data evaluation was operated via the BIAevaluation 3.0 software, provided by the manufacturer, using the Langmuir 1:1 model (RI=0). Evaluated dissociation constants (KD) were standardized against the immobilized protein and indicated. Shown is the change in refractive index measured in real time and plotted as response or resonance unit [RU] versus time [sec].

human collagen type III = target: T4, human collagen type III (Homo sapiens, UniProt P02461); assay: ELISA specificity vs human collagen type III; type: binding
T4 construct: purchased Abcam ab7535
T4 sequence (P02461 154-1221 limits assumed): T3 sequence (P02461 154-1221 limits assumed)
Method: as §1

BSA = BSA (Bos taurus, UniProt P02769); assay: SPR control BSA; type: binding
Method: as §2, §3

[4] = target: extradomain B of fibronectin (Homo sapiens, UniProt P02751); assay: SPR control extradomain B of fibronectin; type: binding
Method: as §2, §3

Type I collagen = Type I collagen (Homo sapiens, UniProt P02452+P08123); assay: SPR specificity vs Type I collagen; type: binding
Method: as §2, §3

Sequence of Type I collagen (P02452 162-1218 limits assumed): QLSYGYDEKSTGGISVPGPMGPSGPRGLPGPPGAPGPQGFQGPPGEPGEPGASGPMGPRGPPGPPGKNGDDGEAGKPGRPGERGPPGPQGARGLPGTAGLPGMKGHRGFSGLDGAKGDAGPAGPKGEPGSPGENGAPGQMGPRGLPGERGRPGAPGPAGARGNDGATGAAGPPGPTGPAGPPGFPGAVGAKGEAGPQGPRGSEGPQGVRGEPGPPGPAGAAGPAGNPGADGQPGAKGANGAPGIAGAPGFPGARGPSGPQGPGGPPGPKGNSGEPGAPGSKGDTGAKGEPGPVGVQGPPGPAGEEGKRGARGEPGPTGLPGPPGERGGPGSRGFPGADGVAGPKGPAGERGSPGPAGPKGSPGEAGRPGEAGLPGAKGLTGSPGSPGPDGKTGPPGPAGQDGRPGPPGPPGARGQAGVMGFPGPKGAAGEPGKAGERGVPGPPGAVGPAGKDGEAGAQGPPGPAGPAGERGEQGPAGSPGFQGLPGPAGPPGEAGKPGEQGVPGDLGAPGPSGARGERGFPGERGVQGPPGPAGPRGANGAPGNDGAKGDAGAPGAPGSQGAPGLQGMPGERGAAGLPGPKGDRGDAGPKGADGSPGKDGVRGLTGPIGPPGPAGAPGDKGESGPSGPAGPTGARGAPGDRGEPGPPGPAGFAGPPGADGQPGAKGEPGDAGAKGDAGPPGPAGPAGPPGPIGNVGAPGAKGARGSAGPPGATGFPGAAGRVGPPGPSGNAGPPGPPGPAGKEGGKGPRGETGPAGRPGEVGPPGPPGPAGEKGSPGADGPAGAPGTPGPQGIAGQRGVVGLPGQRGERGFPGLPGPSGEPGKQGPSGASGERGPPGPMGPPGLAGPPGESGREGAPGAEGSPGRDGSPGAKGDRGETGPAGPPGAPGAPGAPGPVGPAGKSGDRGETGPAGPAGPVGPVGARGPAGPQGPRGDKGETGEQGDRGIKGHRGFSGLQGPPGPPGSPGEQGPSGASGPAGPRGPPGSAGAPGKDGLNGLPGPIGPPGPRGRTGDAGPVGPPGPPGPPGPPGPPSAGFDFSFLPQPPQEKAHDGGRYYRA
Sequence of Type I collagen (P08123 80-1119 limits assumed): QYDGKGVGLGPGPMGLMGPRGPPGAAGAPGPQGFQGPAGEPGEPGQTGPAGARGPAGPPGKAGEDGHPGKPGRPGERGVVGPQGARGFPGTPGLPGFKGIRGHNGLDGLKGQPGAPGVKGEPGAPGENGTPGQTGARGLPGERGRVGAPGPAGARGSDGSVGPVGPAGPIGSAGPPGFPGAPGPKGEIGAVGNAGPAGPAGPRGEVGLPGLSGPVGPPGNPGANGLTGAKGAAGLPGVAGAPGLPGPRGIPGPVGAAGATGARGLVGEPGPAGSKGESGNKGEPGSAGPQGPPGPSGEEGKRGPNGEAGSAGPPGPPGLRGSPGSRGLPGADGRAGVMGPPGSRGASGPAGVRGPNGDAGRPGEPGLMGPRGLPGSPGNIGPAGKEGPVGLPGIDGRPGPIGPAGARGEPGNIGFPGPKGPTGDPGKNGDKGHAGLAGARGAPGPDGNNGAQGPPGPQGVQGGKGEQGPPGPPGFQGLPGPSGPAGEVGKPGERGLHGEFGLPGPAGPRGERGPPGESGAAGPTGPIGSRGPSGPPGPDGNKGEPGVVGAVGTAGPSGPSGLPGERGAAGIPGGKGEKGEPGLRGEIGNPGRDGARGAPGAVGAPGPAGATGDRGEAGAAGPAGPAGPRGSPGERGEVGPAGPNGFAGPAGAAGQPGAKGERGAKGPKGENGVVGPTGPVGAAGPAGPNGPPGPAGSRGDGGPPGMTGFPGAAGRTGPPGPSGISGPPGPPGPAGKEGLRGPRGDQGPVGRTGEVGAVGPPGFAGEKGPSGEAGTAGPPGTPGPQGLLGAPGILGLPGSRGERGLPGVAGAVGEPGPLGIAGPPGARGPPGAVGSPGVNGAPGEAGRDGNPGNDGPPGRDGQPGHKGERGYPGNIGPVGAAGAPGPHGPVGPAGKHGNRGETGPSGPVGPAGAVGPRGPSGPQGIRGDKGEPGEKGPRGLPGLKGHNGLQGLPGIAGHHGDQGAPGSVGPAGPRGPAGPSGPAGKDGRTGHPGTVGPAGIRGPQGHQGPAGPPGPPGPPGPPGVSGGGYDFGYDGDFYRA
T1 sequence (P02452 162-1218 limits assumed): as the sequence (P02452 162-1218 limits assumed) above
T1 sequence (P08123 80-1119 limits assumed): as the sequence (P08123 80-1119 limits assumed) above
T2 sequence (P02458 182-1241): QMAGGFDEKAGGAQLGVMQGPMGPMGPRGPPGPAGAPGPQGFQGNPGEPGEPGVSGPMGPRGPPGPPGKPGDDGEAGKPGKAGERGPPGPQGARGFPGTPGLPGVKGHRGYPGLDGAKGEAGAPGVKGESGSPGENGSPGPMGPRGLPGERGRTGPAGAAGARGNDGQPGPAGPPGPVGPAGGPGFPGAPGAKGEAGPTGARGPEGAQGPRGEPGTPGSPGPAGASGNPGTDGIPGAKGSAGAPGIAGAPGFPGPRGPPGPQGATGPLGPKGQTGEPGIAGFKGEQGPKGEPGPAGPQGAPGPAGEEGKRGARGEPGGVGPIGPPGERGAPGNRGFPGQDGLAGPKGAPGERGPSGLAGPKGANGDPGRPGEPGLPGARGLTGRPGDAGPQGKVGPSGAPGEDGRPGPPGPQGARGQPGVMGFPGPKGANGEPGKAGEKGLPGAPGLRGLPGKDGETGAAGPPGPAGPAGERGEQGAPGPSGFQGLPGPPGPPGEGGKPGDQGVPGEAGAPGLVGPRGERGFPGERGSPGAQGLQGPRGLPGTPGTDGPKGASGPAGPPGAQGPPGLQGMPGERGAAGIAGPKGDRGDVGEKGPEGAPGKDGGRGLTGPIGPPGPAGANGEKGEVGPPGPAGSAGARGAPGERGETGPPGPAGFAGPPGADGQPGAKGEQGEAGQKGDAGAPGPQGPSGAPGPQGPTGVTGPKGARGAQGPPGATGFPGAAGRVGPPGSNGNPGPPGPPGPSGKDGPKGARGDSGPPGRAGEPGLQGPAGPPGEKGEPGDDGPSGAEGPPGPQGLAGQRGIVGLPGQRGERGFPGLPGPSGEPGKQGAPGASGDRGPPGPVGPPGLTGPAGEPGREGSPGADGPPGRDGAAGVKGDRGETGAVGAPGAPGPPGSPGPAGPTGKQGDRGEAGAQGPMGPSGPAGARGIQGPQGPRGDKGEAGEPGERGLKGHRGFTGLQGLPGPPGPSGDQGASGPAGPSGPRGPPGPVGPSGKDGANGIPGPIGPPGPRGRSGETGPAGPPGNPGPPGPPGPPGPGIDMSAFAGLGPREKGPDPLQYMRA
Sequence of BSA (P02769 25-607): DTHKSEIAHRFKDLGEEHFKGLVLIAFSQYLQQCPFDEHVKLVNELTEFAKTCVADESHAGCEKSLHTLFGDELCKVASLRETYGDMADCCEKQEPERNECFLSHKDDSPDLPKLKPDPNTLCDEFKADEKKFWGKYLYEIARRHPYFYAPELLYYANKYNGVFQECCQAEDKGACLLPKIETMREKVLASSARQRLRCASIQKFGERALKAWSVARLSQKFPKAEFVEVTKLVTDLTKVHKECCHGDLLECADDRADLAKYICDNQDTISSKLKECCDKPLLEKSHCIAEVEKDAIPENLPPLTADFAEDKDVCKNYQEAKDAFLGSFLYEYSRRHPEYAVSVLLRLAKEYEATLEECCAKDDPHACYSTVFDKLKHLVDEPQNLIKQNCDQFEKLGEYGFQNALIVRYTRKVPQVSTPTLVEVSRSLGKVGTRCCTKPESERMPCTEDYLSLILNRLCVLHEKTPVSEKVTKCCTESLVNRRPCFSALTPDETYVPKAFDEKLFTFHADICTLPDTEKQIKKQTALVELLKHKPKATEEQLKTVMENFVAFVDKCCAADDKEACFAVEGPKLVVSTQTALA
Sequence of extradomain B of fibronectin (P02751 1271-1359 limits assumed): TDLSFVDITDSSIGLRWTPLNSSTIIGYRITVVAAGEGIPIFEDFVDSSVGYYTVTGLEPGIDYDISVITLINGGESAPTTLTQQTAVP

Substance	Solubility Soluble expression [1]	binding to type I collagen (ELISA) [2]	binding vs human type II collagen (ELISA, words) [3]	Binding to Type III collagen (SPR) (Type III collagen)	binding to type III collagen (ELISA) (human collagen type III)	Binding to control BSA (SPR) (BSA)	Binding to control extradomain B of fibronectin (SPR) [4]	Binding to Type I collagen (SPR) (Type I collagen)
CID 211261: Type II Collagen binding protein of SEQ ID NO: 2 (monomer, motif 25Q-29Y-33W) (IAAKFDEAQSAADSEILHLPNLTEQQRHYFRRWLSDDPSVSTHILTQAQHLNDDQAPK; Col2 binding protein 211261)	95%	–	–	–	–	–	–	–
CID 211190: type II collagen binding protein of SEQ ID NO: 1 (monomer) (NAASHDEAQLSALVEIWDLPNLTTRQKQKFIYSLQRDPSVSKEVLGEAQKLNDSQAPK; Col2 binding protein 211190)	95%	additionally	specific binding	additional binding	additionally	not to controls	not to controls	additional binding
